Laboratory results from patent US8936806B2, “Periostin induces proliferation of cardiomyocytes and promotes cardiac regeneration” (Children's Medical Center Corporation, priority 2007, dated 2015).
Where “and” joins values, the source holds several entries; their conditions need not be identical. Identical values can stand only once. Entries after “also recorded” stand apart in the source; their conditions may differ.

Assays:
[1] = system: Adult male Sprague-Dawley rats; test: Rat model of myocardial infarction: analysis of myocardial regeneration (histology, immunofluorescence); assay type: in vivo
Experimental: Horizontal cryosections of 14 μm thickness spaced at 1 mm intervals were analyzed. To determine infarct size, Masson's Trichrome-stained sections were analyzed at 1× magnification. The infarct border zone was defined as myocardial tissue within 0.5 mm of the fibrous scar tissue. Fibrosis and cardiomyocyte cross-sectional area were determined after staining with Masson's Trichrome at 10× and 40× magnification, respectively, and quantified using the Metamorph software package. BrdU-positive cardiac fibroblast nuclei were determined at 5 cross-sections per heart at the level of the myocardial infarction. Cardiomyocyte nuclei were counted using the optical dissector method (Howard, C. V. & Reed, M. Unbiased Stereology: Three-Dimensional Measurement In Microscopy, (BIOS Scientific Publishers, Oxford, 2005)) on troponin T and DAPI-stained sections in 32-60 random sample volumes of […] per heart. BrdU-positive cardiomyocyte nuclei were quantified on 16-20 sections per heart. […] Adult male Sprague-Dawley rats (300 gm, Charles River Laboratories) underwent experimental myocardial infarction as described (del Monte, F. et al. Abrogation of ventricular arrhythmias in a model of ischemia and reperfusion by targeting myocardial calcium cycling. Proc Natl Acad Sci USA 101, 5622-7 (2004)). The survival rate was 67%. Gelfoam loaded with 100 μg of recombinant periostin or with buffer were applied over the myocardial infarction at the time of surgery. […] Echocardiography and hemodynamic catheterization were performed as described (Prunier, F. et al. Am J Physiol Heart Circ Physiol (2006)). Horizontal cryosections of 14 μm thickness spaced at 1 mm intervals were analyzed. Masson's Trichrome-stained sections were analyzed at 10× magnification to determine infarct size (Pasumarthi, K. B., et al. Circ Res 96, 110-8 (2005)), defined as [coronal infarct perimeter (epicardial+endocardial)/total coronal perimeter (epicardial+endocardial)]×100 and thinning index (Engel, F. B., et al. Proc Natl Acad Sci USA 103, 15546-51 (2006)), defined as minimal infarct wall thickness/maximal septal wall thickness. The infarct border zone was defined as myocardial tissue within 0.5 mm of the fibrous scar tissue. Fibrosis was determined on 10× images of Masson's Trichrome stainings and quantified using the Metamorph software package (Molecular Devices Corp.). Cardiomyocyte cross-sectional area was determined after staining with Masson's Trichrome at 40× magnification and quantified using the Metamorph software package. BrdU-positive cardiac fibroblast nuclei were determined at 5 cross-sections per heart at the level of the myocardial infarction. Cardiomyocyte nuclei were counted on troponin T and DAPI-stained sections in 32-60 random sample volumes of 84,500 μm^3 per heart. BrdU-positive cardiomyocyte nuclei were quantified on 16-20 sections per heart. Capillaries and stem cells were detected with antibodies against von Willebrand factor (vWF) and c-kit, respectively, and quantified at 5 cross-sections per heart at the level of the myocardial infarction.

[2] = Diffusion range and presence of recombinant periostin in myocardium after epicardial Gelfoam patch; assay type: in vivo, rat; conditions: after 12 weeks
Experimental: To develop a long-term delivery system for recombinant periostin, we determined if recombinant periostin associated with Gelfoam, a biodegradable biological scaffold. Gelfoam patches (Pfizer, New York, N.Y.) of 1 cm^2 diameter were loaded with 100 μg of recombinant human periostin and incubated with 1 mL of PBS at 37° C. with continuous agitation for 10 weeks. The supernatant was replaced every 2 weeks and the concentration of recombinant periostin in the supernatant was determined by Western blot using a polyclonal antibody directed against human periostin (Abeam). The diffusion range of recombinant periostin in myocardium was determined with a polyclonal antibody directed against human periostin followed by immunofluorescence microscopy. Presence of periostin in the myocardium was determined by Western blot using a polyclonal antibody directed against human periostin (Abeam).
Adult male Sprague-Dawley rats (300 gm, Charles River Laboratories) underwent experimental myocardial infarction as described (del Monte, F. et al. Abrogation of ventricular arrhythmias in a model of ischemia and reperfusion by targeting myocardial calcium cycling. Proc Natl Acad Sci USA 101, 5622-7 (2004)). The survival rate was 67%. Gelfoam loaded with 100 μg of recombinant periostin or with buffer were applied over the myocardial infarction at the time of surgery. […]

ERK1/2 and Akt = conditions: neonatal cardiomyocytes
Experimental: Primary cardiomyocytes or heart tissue were lysed in 20 mM Tris (pH 7.5), 150 mM NaCl, 10 mM EDTA, 1 mM EGTA, 1% Triton X-100, […], 1 mM β-glycerol phosphate, 1 mM Na3VO4, 1 μg/ml, leupeptin, 1% NP-40 and 0.24 mg/mL Pefabloc SC (Roche) at 4° C. Protein concentrations were determined using the BCA assay (Pierce, Rockford, Ill.). Forty μg of cell lysate was separated on 10% SDS-polyacrylamide gels, blotted onto nitrocellulose membranes (Amersham, Piscataway, N. J.), which were then incubated with antibodies according to manufacturer's directions, followed by visualization with ECL reagent (Amersham).

[3] = 1 week, infarct and border zone

B1: periostin: Recombinant periostin, purified from HEK293 cells expressing the full-length human cDNA; secreted protein of 834 amino acids (Seq ID. No. 1) (protein, listed as Homo sapiens)
chain: MIPFLPMFSLLLLLIVNPINANNHYDKILAHSRIRGRDQGPNVCALQQILGTKKKYFSTCKNWYKKSICGQKTTVLYECCPGYMRMEGMKGCPAVLPIDHVYGTLGIVGATTTQRYSDASKLREEIEGKGSFTYFAPSNEAWDNLDSDIRRGLESNVNVELLNALHSHMINKRMLTKDLKNGMIIPSMYNNLGLFINHYPNGVVTVNCARIIHGNQIATNGVVHVIDRVLTQIGTSIQDFIEAEDDLSSFRAAAITSDILEALGRDGHFTLFAPTNEAFEKLPRGVLERFMGDKVASEALMKYHILNTLQCSESIMGGAVFETLEGNTIEIGCDGDSITVNGIKMVNKKDIVTNNGVIHLIDQVLIPDSAKQVIELAGKQQTTFTDLVAQLGLASALRPDGEYTLLAPVNNAFSDDTLSMVQRLLKLILQNHILKVKVGLNELYNGQILETIGGKQLRVFVYRTAVCIENSCMEKGSKQGRNGAIHIFREIIKPAEKSLHEKLKQDKRFSTFLSLLEAADLKELLTQPGDWTLFVPTNDAFKGMTSEEKEILIRDKNALQNIILYHLTPGVFIGKGFEPGVTNILKTTQGSKIFLKEVNDTLLVNELKSKESDIMTTNGVIHVVDKLLYPADTPVGNDQLLEILNKLIKYIQIKFVRGSTFKEIPVTVYTTKIITKVVEPKIKVIEGSLQPIIKTEGPTLTKVKIEGEPEFRLIKEGETITEVIHGEPIIKKYTKIIDGVPVEITEKETREERIITGPEIKYTRISTGGGETEETLKKLLQEEVTKVTKFIEGGDGHLFEDEEIKRLLQGDTPVRKLQANKKVQGSRRRLREGRSQ
- number of c-kit-positive cells in infarct and border zone vs control ([1]; 1 and 12 weeks): did not differ
- mitosis (H3P), of cardiomyocyte nuclei ([1]; 1 week): 0.1±0.01%
- infarct size vs control ([1]; 1 week after MI): same infarct size
- number of BrdU-positive cardiac fibroblasts ([1]; 1 week after MI): decreased
- number of cardiomyocyte nuclei vs control ([1]; 1 week after MI): same number of nuclei
- proportion of cycling cardiomyocytes vs proportion of apoptotic cardiomyocytes ([1]; 1 week after MI): five-fold higher
- arteriolar density vs control [1, 3]: did not differ
- capillary density vs control [1, 3]: did not differ
- mitosis (H3P), of cardiomyocyte nuclei ([1]; 12 weeks): 0.2±0.5%
- fibrotic tissue ([1]; 12 weeks after MI): significantly decreased
- heart weight vs buffer-treated rats ([1]; 12 weeks after MI): similar
- increase in arteriolar density compared with control hearts ([1]; 12 weeks after MI): 1.5 fold
- increase in capillary density compared with control hearts ([1]; 12 weeks after MI): 4 fold
- infarct size smaller compared with control hearts ([1]; 12 weeks after MI): 50%
- left ventricular free wall thickness vs control ([1]; 12 weeks after MI): thicker
- more cardiomyocyte nuclei than control hearts ([1]; 12 weeks after MI): 6.2×10^6
- proportion of cycling cardiomyocytes vs proportion of apoptotic cardiomyocytes ([1]; 12 weeks after MI): 100 fold
- scar volume vs control ([1]; 12 weeks after MI): smaller scar volume
- septum thickness vs control ([1]; 12 weeks after MI): thinner
- thinning index ([1]; 12 weeks after MI): improved thinning index
- increased capillary density compared with control animals ([1]; FIG. 11A, time not given, legend b80: one week): 4 fold
- number of stem cells (c-kit) vs buffer treated hearts ([1]; FIG. 11B): similar
- calculated new cardiomyocyte nuclei from BrdU rate ([1]; after 12 weeks): 7.2×10^6 per heart
- cross-sectional cardiomyocyte area vs control ([1]; after MI): smaller
- increase of DNA synthesis compared with buffer-treated animals ([1]; after MI): 10 fold
- left ventricular cardiomyocyte nuclei ([1]; after MI (FIG. 9i)): 18.8 million
- cardiomyocyte apoptosis vs control ([1]; after MI, 1 and 12 weeks): without changing the rate of apoptosis; also recorded: without affecting apoptosis; also recorded: similar
- DNA synthesis, cardiomyocytes per heart ([1]; after MI, 3 BrdU injections): 5,268±402 per heart
- BrdU uptake, of cardiomyocytes ([1]; infarct and border zone, 1 week): 0.6±0.07%
- BrdU uptake, of cardiomyocytes ([1]; infarct and border zone, 12 weeks): 1±0.3%
- calculated cardiomyocyte nuclei generated from rate of mitosis ([1]; over 12 weeks): 5.5×10^6
- cardiomyocyte mitoses (metaphase chromosomes) ([1]; periostin-treated hearts, n=6): 4,737±770
- cell-cycle reentry, of all cardiomyocytes in the infarct border zone ([1]; rat, in vivo): 0.6-1%
- rate of cardiomyocytes entering the cell cycle ([1]; rat, in vivo): 3,727 per hour
- cell-cycle reentry of differentiated cardiomyocytes ([1]; single injection of BrdU, labeling for 6.4 h, n=3): 23,852±1,709 per heart
- BrdU-labeled cardiomyocytes / cell cycle re-entry in the infarct border zone ([1]; three injections of BrdU): 1.4% and 1.4±0.5%
- presence of periostin in the left ventricle by immunoblotting [2]: confirmed presence
- distance from the epicardium to the farthest diffusion range of periostin ([2]; epicardial Gelfoam patch): 461±62
- activation of ERK1/2 and Akt (ERK1/2 and Akt): activated
